Positions of bridges follow the written chain, without caps; N, C: chain ends. Non-standard residues stand in square brackets, D forms with d.
Columns and labels:
[1] = target: T1, synthetic PSMα1 peptide (phenol soluble modulin α1) (Staphylococcus aureus, N-terminal formylation (fMet 1)); test: BLI (BLItz), AP90 (180 µM) immobilized on APS tip, PSMα1 (50 µM) in solution, samples near the end of the aggregation lag phase (α-sheet-rich, about 48 h); lower end of the range; PSMα1 samples near the end of the aggregation lag phase
T1 construct: Synthetic peptide from Ontores Biotechnologies
T1 peptide: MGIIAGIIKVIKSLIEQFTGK
Method: (§1) All biolayer interferometry (BLI) experiments were performed on a BLItz™ biosensor system (ForteBio) using aminopropylsilane (APS) sensors. Sensors were hydrated in ddH₂O+22 μM ThT for 10 minutes prior to use. Designed peptides (dissolved in ddH₂O+22 μM ThT) were loaded onto the APS tip, a baseline was established in ddH₂O+22 μM ThT, and then the association of PSMα1 (prepped with DMSO+ddH₂O+22 μM ThT, as in the fibrillization assay at various pre-incubation times) was monitored over a period of three minutes. Dissociation was subsequently measured in ddH₂O+22 μM ThT, and the equilibrium dissociation constant (KD) was calculated using the BLItz™ analysis software (ForteBio).

[2] = target: T1, synthetic PSMα1 peptide (phenol soluble …); test: cell-based or functional assay
[3] = target: T1, synthetic PSMα1 peptide (phenol soluble …); test: BLI (BLItz), AP90 immobilized on APS tip, PSMα1 (50 µM) pre-incubated 146 h (transition region between α-sheet and β-sheet)
Method: as §1

B1: AP90 (Alternating Peptide #90) (designed binder)
peptide: Ac-RGE[dM]N[dL]S[dW]MNEYSGW[dT]M[dN]L[dK]MGR-NH2
SMILES: CSCC[C@H](NC(=O)[C@@H](CCCCN)NC(=O)[C@H](CC(C)C)NC(=O)[C@@H](CC(N)=O)NC(=O)[C@H](CCSC)NC(=O)[C@H](NC(=O)[C@H](Cc1c[nH]c2ccccc12)NC(=O)CNC(=O)[C@H](CO)NC(=O)[C@H](Cc1ccc(O)cc1)NC(=O)[C@H](CCC(=O)O)NC(=O)[C@H](CC(N)=O)NC(=O)[C@H](CCSC)NC(=O)[C@@H](Cc1c[nH]c2ccccc12)NC(=O)[C@H](CO)NC(=O)[C@@H](CC(C)C)NC(=O)[C@H](CC(N)=O)NC(=O)[C@@H](CCSC)NC(=O)[C@H](CCC(=O)O)NC(=O)CNC(=O)[C@H](CCCNC(=N)N)NC(C)=O)[C@H](C)O)C(=O)NCC(=O)N[C@@H](CCCNC(=N)N)C(N)=O
notes: Designed α-sheet single-turn hairpin peptide with alternating L/D residues in the strands; Made by solid phase synthesis; In the BLI assay it was loaded on an aminopropylsilane (APS) sensor tip at 180 µM; also called α1
Kd [1]: 1000 to 1500 nM | inhibition of PSMα1 amyloid formation (ThT fluorescence), water + <1% DMSO, 30 µM PSMα1, 1:4 molar ratio PSMα1:AP90 [2]: 81% | inhibition of PSMα1 fibril formation (ThT fluorescence), LB medium + <1% DMSO, 1:4 molar ratio PSMα1:AP90 [2]: 73% | drop in binding affinity against α-sheet-rich PSMα1 (end of lag phase) [3]: ~100 fold

B2: AP407 (designed binder)
peptide: Ac-RGE[dM]N[dL]C[dW]MNEYSGW[dC]M[dN]L[dK]MGR-NH2
modifications: disulfide 7-16
SMILES: CSCC[C@H](NC(=O)[C@@H](CCCCN)NC(=O)[C@H](CC(C)C)NC(=O)[C@@H](CC(N)=O)NC(=O)[C@H](CCSC)NC(=O)[C@H]1CSSC[C@H](NC(=O)[C@@H](CC(C)C)NC(=O)[C@H](CC(N)=O)NC(=O)[C@@H](CCSC)NC(=O)[C@H](CCC(=O)O)NC(=O)CNC(=O)[C@H](CCCNC(=N)N)NC(C)=O)C(=O)N[C@H](Cc2c[nH]c3ccccc23)C(=O)N[C@@H](CCSC)C(=O)N[C@@H](CC(N)=O)C(=O)N[C@@H](CCC(=O)O)C(=O)N[C@@H](Cc2ccc(O)cc2)C(=O)N[C@@H](CO)C(=O)NCC(=O)N[C@@H](Cc2c[nH]c3ccccc23)C(=O)N1)C(=O)NCC(=O)N[C@@H](CCCNC(=N)N)C(N)=O
inhibition of PSMα1 amyloid formation (ThT fluorescence), water + <1% DMSO, 30 µM PSMα1, 1:3 molar ratio PSMα1:AP407 [2]: 69%

Source: patent US20240050517A1 (University of Washington, published 2024)
